Substrate in this data set: COc1ccc([C@@H]2CC(=O)c3c(O)cc(O)cc3O2)cc1O
Kind of data set: UPLC-MS product formation, Lineweaver-Burk. In kind it is biochemical, Camellia sinensis. The conditions noted are these: 4'-O-methyl taxifolin formation (main product), Tris-HCl pH 7.5, 23 °C, 1 h, 5 mM 2-mercaptoethanol, 1 mM NADPH, 'separated protein', purification not described. An excerpt: UPLC-MS product formation, Lineweaver-Burk on CaFLS

B1: CaFLS (Camellia sinensis) (protein)
chain: MEVERVQALSHVTLHELPAKFIRPAHEQPENSKAIEGVTVPVISLSRPHDVVVDALSKACSEWGFFLITDHGVEPSLIGRLKEVGEEFFKLPQKEKESYANDPSSGSFEGYGTKMTKNFDEKVEWIDYYFHVMHPPKKLNLDMWPKNPSSYRGVTEEYNVEILRTTNKLLELLSEGLGLDGKVLNSSLGGDEIEFEMKINMYPPCPQPELALGVEPHTDMSALTLLIPNDVPGLQVWKDGNWVAVNYLPNALFVHVGDQLEVLSNGKYKSVLHRSLVNKERTRMSWAVFVVPPHEAVIGPLPELIDEKNPAKYSTKTYAEYRYRKFNKIPQ
notes: synthetic gene in pET-28a(+) (NcoI/XhoI), expressed in E. coli BL21(DE3); 331 residues; mutants carry fragments of AnFNS I
On to B1, for which the Michaelis-Menten constant (Km) came out at 55.47 µM, the Vmax worked out at 0.0558 µmol/min/mg, the kcat came to 0.0349 s⁻¹ and the kcat/Km worked out at 629 M⁻¹ s⁻¹.

The values above are taken from article PMC9213739, “Substrates and Loaded Iron Ions Relative Position Influence the Catalytic Characteristics of the Metalloenzymes Angelica archangelica Flavone Synthase I and Camellia sinensis Flavonol Synthase” (Frontiers in Pharmacology, 2022).
